The data set relates to Escherichia coli TOP10. The data set can be described thus: shrunken log2 fold change of peptide-encoding DNA abundance (4.5 h post-induction vs induction); higher = less antimicrobial activity (less host growth inhibition). Particulars: time post-induction: 4.5 h; library: site-saturation at positions 5, 18, 19, 20.
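Also: peptides expressed intracellularly from a pBAD plasmid library in pooled LB shake-flask culture, induced with 0.3% L-arabinose, DNA abundance read by NGS, three biological replicates, DESeq2 with apeglm shrinkage.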

In the case of RRIRQRPPRLPRPRPRPHTIPRP, the “shrunken log2 fold change” value is -0.412.

As to RRIRVRPPRLPRPRPRPKHSPRP, the “shrunken log2 fold change” value was -0.189.

Take RRIRHRPPRLPRPRPRPGWEPRP: the “shrunken log2 fold change” value was found to be 0.274.

As to RRIRKRPPRLPRPRPRPAPFPRP, the “shrunken log2 fold change” value worked out at 0.659.

For RRIRNRPPRLPRPRPRPDQWPRP, the “shrunken log2 fold change” value is 0.0039.

Take RRIRFRPPRLPRPRPRPQNQPRP: the “shrunken log2 fold change” value was -0.485.

Consider RRIRIRPPRLPRPRPRPEPAPRP, for which the “shrunken log2 fold change” value amounted to 0.326.

Take RRIRVRPPRLPRPRPRPPFNPRP: the “shrunken log2 fold change” value is -0.303.

Consider RRIRERPPRLPRPRPRPIKMPRP, for which the “shrunken log2 fold change” value was -0.347.

For the sequence RRIRWRPPRLPRPRPRPMRYPRP, the “shrunken log2 fold change” value is -0.0679.

As to RRIRIRPPRLPRPRPRPITPPRP, the “shrunken log2 fold change” value was -0.421.

In the case of RRIRWRPPRLPRPRPRPSMFPRP, the “shrunken log2 fold change” value was -0.0441.

With RRIRGRPPRLPRPRPRPEKHPRP, the “shrunken log2 fold change” value was 0.617.

For the sequence RRIRDRPPRLPRPRPRPKRHPRP, the “shrunken log2 fold change” value was determined as 0.214.

Take RRIRYRPPRLPRPRPRPNEVPRP: the “shrunken log2 fold change” value was -0.00663.

Regarding RRIRARPPRLPRPRPRPHQLPRP, the “shrunken log2 fold change” value worked out at 0.086.

Turning to RRIRWRPPRLPRPRPRPPFLPRP, the “shrunken log2 fold change” value is 0.26.

As to RRIRFRPPRLPRPRPRPLCLPRP, the “shrunken log2 fold change” value is -0.431.

Consider RRIRDRPPRLPRPRPRPGAPPRP, for which the “shrunken log2 fold change” value was 0.598.

Turning to RRIRWRPPRLPRPRPRPADTPRP, the “shrunken log2 fold change” value was 0.0101.

RRIRQRPPRLPRPRPRPLDKPRP: the “shrunken log2 fold change” value stood at 2.19.

Regarding RRIRRRPPRLPRPRPRPKQEPRP, the “shrunken log2 fold change” value is 0.0674.

Consider RRIRRRPPRLPRPRPRPFIIPRP, for which the “shrunken log2 fold change” value was -0.323.

For RRIRCRPPRLPRPRPRPNMGPRP, the “shrunken log2 fold change” value was -0.14.

Take RRIRSRPPRLPRPRPRPCTPPRP: the “shrunken log2 fold change” value was -0.312.

Take RRIRWRPPRLPRPRPRPAQIPRP: the “shrunken log2 fold change” value came to 0.0333.

RRIRERPPRLPRPRPRPCFVPRP: the “shrunken log2 fold change” value is -0.151.

With RRIRIRPPRLPRPRPRPKKHPRP, the “shrunken log2 fold change” value is -0.21.

Turning to RRIRHRPPRLPRPRPRPTYTPRP, the “shrunken log2 fold change” value is -0.00607.

Consider RRIRERPPRLPRPRPRPSQGPRP, for which the “shrunken log2 fold change” value was -0.153.

On to RRIRIRPPRLPRPRPRPCHMPRP, for which the “shrunken log2 fold change” value was -0.188.

On to RRIRCRPPRLPRPRPRPNVNPRP, for which the “shrunken log2 fold change” value is -0.461.

Consider RRIRGRPPRLPRPRPRPDWVPRP, for which the “shrunken log2 fold change” value was 0.287.

Regarding RRIRLRPPRLPRPRPRPEHGPRP, the “shrunken log2 fold change” value was 0.00489.

RRIRYRPPRLPRPRPRPSMHPRP: the “shrunken log2 fold change” value is -0.601.

As to RRIRYRPPRLPRPRPRPGWIPRP, the “shrunken log2 fold change” value is -0.328.

Consider RRIRWRPPRLPRPRPRPRNFPRP, for which the “shrunken log2 fold change” value is 0.0292.

As to RRIRSRPPRLPRPRPRPFRMPRP, the “shrunken log2 fold change” value was -0.646.

Consider RRIRERPPRLPRPRPRPHAKPRP, for which the “shrunken log2 fold change” value turned out to be 0.0118.

As to RRIRYRPPRLPRPRPRPIWYPRP, the “shrunken log2 fold change” value was -0.0575.

Take RRIRSRPPRLPRPRPRPPWQPRP: the “shrunken log2 fold change” value turned out to be 0.449.

On to RRIRARPPRLPRPRPRPLCSPRP, for which the “shrunken log2 fold change” value was determined as 0.197.

Regarding RRIRRRPPRLPRPRPRPLTCPRP, the “shrunken log2 fold change” value was -0.12.

Take RRIRPRPPRLPRPRPRPHDYPRP: the “shrunken log2 fold change” value was -0.0318.

RRIRIRPPRLPRPRPRPDIPPRP: the “shrunken log2 fold change” value is -0.112.

In the case of RRIRWRPPRLPRPRPRPQWLPRP, the “shrunken log2 fold change” value came out at 0.275.

Turning to RRIRRRPPRLPRPRPRPSPLPRP, the “shrunken log2 fold change” value is 0.479.

Consider RRIRIRPPRLPRPRPRPDQNPRP, for which the “shrunken log2 fold change” value amounted to 0.0467.

For the sequence RRIRFRPPRLPRPRPRPRWTPRP, the “shrunken log2 fold change” value was 1.19.

For the sequence RRIRLRPPRLPRPRPRPALPPRP, the “shrunken log2 fold change” value was found to be 0.128.

On to RRIRERPPRLPRPRPRPHSRPRP, for which the “shrunken log2 fold change” value was -0.0374.

For RRIRDRPPRLPRPRPRPKRQPRP, the “shrunken log2 fold change” value is -0.0603.

Turning to RRIRMRPPRLPRPRPRPWLIPRP, the “shrunken log2 fold change” value worked out at 0.0295.

Regarding RRIRGRPPRLPRPRPRPATRPRP, the “shrunken log2 fold change” value is 0.94.

RRIRLRPPRLPRPRPRPLVDPRP: the “shrunken log2 fold change” value is -0.0956.

On to RRIRGRPPRLPRPRPRPIELPRP, for which the “shrunken log2 fold change” value was -0.0084.

With RRIRTRPPRLPRPRPRPFARPRP, the “shrunken log2 fold change” value stood at 0.00253.

For the sequence RRIRKRPPRLPRPRPRPRWWPRP, the “shrunken log2 fold change” value is 0.316.

As to RRIRRRPPRLPRPRPRPTDTPRP, the “shrunken log2 fold change” value was -0.11.

With RRIRRRPPRLPRPRPRPIAYPRP, the “shrunken log2 fold change” value stood at 0.0129.

As to RRIRFRPPRLPRPRPRPDYYPRP, the “shrunken log2 fold change” value was -1.21.

Consider RRIRDRPPRLPRPRPRPILAPRP, for which the “shrunken log2 fold change” value stood at 0.115.

In the case of RRIRLRPPRLPRPRPRPLRIPRP, the “shrunken log2 fold change” value was -0.031.

Consider RRIRGRPPRLPRPRPRPDAHPRP, for which the “shrunken log2 fold change” value was 0.421.

In the case of RRIRGRPPRLPRPRPRPDQIPRP, the “shrunken log2 fold change” value amounted to 0.167.

Turning to RRIRSRPPRLPRPRPRPGWTPRP, the “shrunken log2 fold change” value is -0.0313.

As for RRIRMRPPRLPRPRPRPYEAPRP, the “shrunken log2 fold change” value stood at 0.029.

Regarding RRIRMRPPRLPRPRPRPLFDPRP, the “shrunken log2 fold change” value was 0.201.

On to RRIRKRPPRLPRPRPRPLQLPRP, for which the “shrunken log2 fold change” value stood at 0.166.

Consider RRIRWRPPRLPRPRPRPVCGPRP, for which the “shrunken log2 fold change” value amounted to 0.649.

Turning to RRIRARPPRLPRPRPRPLYSPRP, the “shrunken log2 fold change” value was -0.122.

For RRIRQRPPRLPRPRPRPPHMPRP, the “shrunken log2 fold change” value is 0.287.

Consider RRIRVRPPRLPRPRPRPWMNPRP, for which the “shrunken log2 fold change” value was -0.00133.

Turning to RRIRCRPPRLPRPRPRPDCNPRP, the “shrunken log2 fold change” value is -0.219.

As for RRIRHRPPRLPRPRPRPQDRPRP, the “shrunken log2 fold change” value is -0.111.

RRIRKRPPRLPRPRPRPIKPPRP: the “shrunken log2 fold change” value was found to be 0.0885.

Regarding RRIRDRPPRLPRPRPRPYCFPRP, the “shrunken log2 fold change” value was -0.744.

As for RRIRARPPRLPRPRPRPVWFPRP, the “shrunken log2 fold change” value turned out to be 0.334.

In the case of RRIRIRPPRLPRPRPRPPWNPRP, the “shrunken log2 fold change” value is -0.403.

Take RRIRWRPPRLPRPRPRPNNDPRP: the “shrunken log2 fold change” value was -0.213.

RRIRKRPPRLPRPRPRPGFWPRP: the “shrunken log2 fold change” value worked out at 0.537.

On to RRIRKRPPRLPRPRPRPTVYPRP, for which the “shrunken log2 fold change” value was -0.0794.

For the sequence RRIRPRPPRLPRPRPRPHFFPRP, the “shrunken log2 fold change” value is 0.118.

With RRIRRRPPRLPRPRPRPYCLPRP, the “shrunken log2 fold change” value is -0.574.

On to RRIRERPPRLPRPRPRPHSTPRP, for which the “shrunken log2 fold change” value is -0.817.

As for RRIRKRPPRLPRPRPRPRQIPRP, the “shrunken log2 fold change” value was 0.298.

For RRIRWRPPRLPRPRPRPESQPRP, the “shrunken log2 fold change” value was 0.185.

Turning to RRIRSRPPRLPRPRPRPYDEPRP, the “shrunken log2 fold change” value came out at 0.0261.

As for RRIRMRPPRLPRPRPRPNTAPRP, the “shrunken log2 fold change” value came to 0.0661.

Consider RRIRGRPPRLPRPRPRPAFRPRP, for which the “shrunken log2 fold change” value came out at 0.749.

Consider RRIRMRPPRLPRPRPRPLNEPRP, for which the “shrunken log2 fold change” value is 0.216.

As for RRIRRRPPRLPRPRPRPGRPPRP, the “shrunken log2 fold change” value turned out to be 0.259.

With RRIRDRPPRLPRPRPRPWPHPRP, the “shrunken log2 fold change” value was -0.00987.

RRIRQRPPRLPRPRPRPIACPRP: the “shrunken log2 fold change” value is -0.238.

With RRIRVRPPRLPRPRPRPVWWPRP, the “shrunken log2 fold change” value is -0.0476.

For RRIRVRPPRLPRPRPRPFIWPRP, the “shrunken log2 fold change” value is -0.0481.

RRIRRRPPRLPRPRPRPLMQPRP: the “shrunken log2 fold change” value worked out at 0.396.

With RRIRARPPRLPRPRPRPSNRPRP, the “shrunken log2 fold change” value was -0.457.

Turning to RRIRRRPPRLPRPRPRPDGCPRP, the “shrunken log2 fold change” value came out at 0.165.

In the case of RRIRYRPPRLPRPRPRPRNRPRP, the “shrunken log2 fold change” value is -0.0543.

In the case of RRIRRRPPRLPRPRPRPLRCPRP, the “shrunken log2 fold change” value turned out to be 0.714.

As to RRIRDRPPRLPRPRPRPNWEPRP, the “shrunken log2 fold change” value stood at 0.0184.

As to RRIRKRPPRLPRPRPRPQKTPRP, the “shrunken log2 fold change” value was 0.167.

With RRIRLRPPRLPRPRPRPGHMPRP, the “shrunken log2 fold change” value is -0.236.

In the case of RRIRYRPPRLPRPRPRPTMDPRP, the “shrunken log2 fold change” value is -0.67.

Turning to RRIRWRPPRLPRPRPRPREAPRP, the “shrunken log2 fold change” value stood at 0.185.

Consider RRIRTRPPRLPRPRPRPCGHPRP, for which the “shrunken log2 fold change” value was -0.14.

As for RRIRGRPPRLPRPRPRPHRKPRP, the “shrunken log2 fold change” value is 0.101.

As to RRIRKRPPRLPRPRPRPFFHPRP, the “shrunken log2 fold change” value is 0.203.

RRIRPRPPRLPRPRPRPQEYPRP: the “shrunken log2 fold change” value is -0.151.

As to RRIRIRPPRLPRPRPRPIEYPRP, the “shrunken log2 fold change” value is -0.0602.

Turning to RRIRSRPPRLPRPRPRPPANPRP, the “shrunken log2 fold change” value stood at 0.283.

Take RRIRYRPPRLPRPRPRPLCMPRP: the “shrunken log2 fold change” value was -0.795.

With RRIRPRPPRLPRPRPRPWGYPRP, the “shrunken log2 fold change” value was -0.0649.

As for RRIRMRPPRLPRPRPRPYESPRP, the “shrunken log2 fold change” value was found to be 0.107.

As to RRIRTRPPRLPRPRPRPATMPRP, the “shrunken log2 fold change” value was -0.0723.

For RRIRVRPPRLPRPRPRPLPMPRP, the “shrunken log2 fold change” value came out at 0.0885.

On to RRIRDRPPRLPRPRPRPKFEPRP, for which the “shrunken log2 fold change” value is -0.0187.

With RRIRARPPRLPRPRPRPICCPRP, the “shrunken log2 fold change” value stood at 0.316.

On to RRIRLRPPRLPRPRPRPAHNPRP, for which the “shrunken log2 fold change” value amounted to 0.255.

For the sequence RRIRMRPPRLPRPRPRPPTQPRP, the “shrunken log2 fold change” value was 0.785.

For the sequence RRIRGRPPRLPRPRPRPLRPPRP, the “shrunken log2 fold change” value turned out to be 1.47.

Take RRIRMRPPRLPRPRPRPAYHPRP: the “shrunken log2 fold change” value is -0.157.

For RRIRWRPPRLPRPRPRPWKPPRP, the “shrunken log2 fold change” value is -0.732.

As for RRIRGRPPRLPRPRPRPSKAPRP, the “shrunken log2 fold change” value amounted to 0.165.

Source of the values: the supplement of paper PMC9112550, “Optimization of the antimicrobial peptide Bac7 by deep mutational scanning” (BMC Biology, 2022).
